The source of these data is patent US20260241035A1, “FUNCTIONAL NUCLEIC ACID MOLECULE AND METHOD” (THE UNIVERSITY COURT OF THE UNIVERSITY OF EDINBURGH, priority 2022, published 2026).

For data set [1], the system named is GSC7 cells. The experiment in a line: Flow cytometry of mNGreen reporter in GSC7. In kind it is cell-based, human. On the procedure: Cells were seeded at the required density. The following day the transfection was carried out. […] Following this step, the Plus reagent/Optimem premix was added to all DNA samples followed by the Lipofectamine LTX/Optimem premix. The transfection mix was incubated for 5 min at room temperature and then carefully dropped on the cells. Generally, no media change was carried out. Cells were analysed two days following transfection.
For flow cytometry, cells were detached, pelleted and resuspended in an appropriate volume of flow cytometry buffer (1% BSA in PBS, v/v). Cells were stained with Draq7 (Abcam, ab109202, f.c. 0.1 μM) as a live/dead stain and analysed using the BD LSRFortessa cell analyser (4 lasers, BD Bioscience).
For orientation: A flow cytometer gives signals particle by particle.

In data set [2] the test system is GSC7 cells. The experiment in a line: Nano-Glo Dual-Luciferase Reporter (Nanoglo DLR) assay of enhancer activity, fold change to mCMV. The class given is cell-based, human. The settings on record: for activity compared with CMV, Nanoglo DLR assay: GSC7. Summed up:
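160 bp enhancer fragments in NanoLuc reporter plasmids were co-transfected 1:10 with PGK-firefly luciferase into GSC7 cells using Lipofectamine LTX/Plus and read two days later. NanoLuc signal was normalised to firefly, then expressed as fold change to the empty mCMV vector.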
Background: Reporter assays use an easily measured gene product as a stand-in for the process of interest.

The target of the next data set is T1, SOX9 (Homo sapiens, UniProt P48436).
T1 construct: These dsDNA fragments were incubated with nuclear extract from GSC7 and GSC328; endogenous in cells; host or cells: nuclear extract of GSC7 and/or GSC328 (patient-derived glioblastoma stem cell lines)
T1 sequence (P48436 1-509): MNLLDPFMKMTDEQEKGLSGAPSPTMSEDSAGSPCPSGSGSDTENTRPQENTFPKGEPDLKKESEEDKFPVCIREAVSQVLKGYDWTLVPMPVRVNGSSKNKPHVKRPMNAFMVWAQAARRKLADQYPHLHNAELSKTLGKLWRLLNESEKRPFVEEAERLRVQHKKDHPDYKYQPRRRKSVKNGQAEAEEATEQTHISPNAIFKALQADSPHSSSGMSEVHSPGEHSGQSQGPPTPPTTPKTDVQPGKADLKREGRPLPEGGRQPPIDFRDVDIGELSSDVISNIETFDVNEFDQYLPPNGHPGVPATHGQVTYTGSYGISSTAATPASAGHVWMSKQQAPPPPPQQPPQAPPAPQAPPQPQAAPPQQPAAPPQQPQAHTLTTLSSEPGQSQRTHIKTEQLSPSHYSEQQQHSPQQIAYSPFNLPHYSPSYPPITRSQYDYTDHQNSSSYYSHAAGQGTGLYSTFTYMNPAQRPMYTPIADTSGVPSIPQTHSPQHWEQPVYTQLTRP
As to the kind of experiment: Biotinylated enhancer pull down from nuclear extract, SOX9 detection. The class given is binding. Conditions: random DNA 599 as negative control.

Protocol for SOX9: The oligo was PCR-amplified using biotinylated primers. The PCR product was then SPRI purified to remove biotinylated primer dimers. These dsDNA fragments were incubated with nuclear extract from GSC7 and GSC328. They were then bound to streptavidin magnetic beads, washed three times and the frozen beads were sent for mass spectrometry analysis.
All the buffers were prepared the day before, passed through a 22 μm filter (except the dialysis buffer) and left at 4° C. overnight. DTT and protease inhibitors were added just before use. […] The cell suspension was transferred to a glass Dounce homogenizer and dounced 40 times on ice. […] Dialysis buffer was changed (500 ml) and the dialysis was continued overnight at 4° C. The extract was collected in an 1.5 ml tube and spun at maximum speed for 15 min at 4° C. […] 100 μg aliquots were flash frozen in liquid nitrogen and stored at −80° C.
Enhancers were amplified with 5′ biotinylated primers (Table 5) using PrimeStar Max (Takara) according to the manufacturer's instructions.
Streptavidin Magnetic Bead (NEB, S1420S) were used according to the manufacturer's instructions. […]
Next, we aimed to confirm that indeed SOX2 and SOX9 are binding to the enhancer and the SOX dimer motif. […] To filter for transcription factors a list of all transcription factors was obtained from UniProt and overlapped with the detected proteins in both cell lines.

B1: SSE-3: synthetic super-enhancer ID0876_ID2339_ID1737_ID0663, SEQ ID NO: 66 (nucleic acid)
DNA: GAGCAGGCAGTCATTTGGTTCCCTTCTCTGAATGCATTGGCTCTGATCCACGGCGCCTCAGGAAGTGAAAGGGAGCAGGCAGTGAGGCCAAGCCATGAATGTTGGGCCCTTTTCTTAGAAAACAAAGGGTTCACTTTAGGCTAGGAGGAAACATCCGGGGGTCGGCGGAACTGAGTCTCCTTTGTGGAGCCCCTCATTTGCATGATAAACCCCGGGGACAAAGTGTGTTCTTGTTACTTGGACTGTTTCTTGGAAACTGCTGCTACCTGGAGCGAGTGAACACAGGGCAAGTATTCTCGCCCACAGCAACGTGTCATTGACAACGTTTTTGGCAGATGCAGCTCTTTCTGAACAGTAAGTCATTGTTGAGTGACATGAATAGGACGAGAGCTACAGAAAATGAAGGTTTCAAAAGATTGTCTAAAACAAAAGTCCTTTCAGTCCCGTATTCAGAGTTATAAATTCCGATTAGCCAAGGAAGCTCTGAGTCTAAATACCAGCAAAGCTCAGCCCCTGCAAGTGGGGACGAATTATTTGAAAGGTCATCCTAGAGACACTGAACAAAGGGCCTCTAGCAGCT
Regarding B1, in the data set with GSC7 cells [1], the “expression level compared with positive control CMV, flow cytometry” value is “higher than CMV”. Moreover, the “activity compared with CMV, Nanoglo DLR assay” value (“activity compared with CMV” for short) in the data set with GSC7 cells [2] was “higher than CMV”.

B2: SSE-1: synthetic super-enhancer ID1101_ID2904_ID0109_ID4328, SEQ ID NO: 64 (nucleic acid)
DNA: GTGAGTGTGACTCACATGCTGGCATCAGAGCCCCTCTTAGAGCTTAGAACACTGGGCCTCTGTCAGGCAAAGAAAAGGAGTCCCTATGAATAGCCATCTCCACAAATAGCAGTTACTGTCACTTCTTAAAAGACACAAGCATGGCTGGAGACCGGCACTGTGCATGTTCTTGGGAAAAAGTGGTATTTAATGAAGGCGCTTTGAGCTGAATCAAAGAGCCTCATTCTTCTGAAAGTCCTTCTTCCTAGTCTCTGCATCCGGCTCCTATCAAAGGAAATCCACAGCTTTGGCTTTTCGTTGCTGTTGTCATGGAAATCGTTGAAATTGGATCCTGAGGAGAATGTCACCACCTCTTTGACAATAACTAGCTTTCAGAGCTGAACACAGTGAATCTGGATACTGTGTATATGTTTAAATGAGTTAGGAAATGACATCACATTATTTATTTCTTCTTTTGTGACTTAGTAAATTGACTTGGCCTACAATCTATTCTCCATAGTCATCAGAGTTTCTTTAAAGGCACGGTTCAGACAATGGCACCCTCTGTTCCAAACCCTCCAGGGCTTCCTATTTCACTTAGCATAAAAACCAAAGTCCTCACAATGACCGACAAGTCTTCACACAATGTGCCCCTTCATTG
On to B2, for which, in the data set on GSC7 cells [1], the “expression level compared with positive control CMV, flow cytometry” value is “higher than CMV” and the “fluorescence intensity compared with CMV” value is reported as “higher intensity than CMV”. Also, the “activity compared with CMV” value in the data set on GSC7 cells [2] is “higher than CMV”.

B3: SSE-5: synthetic super-enhancer ID2706_ID3547_ID3548_ID3146, SEQ ID NO: 68 (nucleic acid)
DNA: CCAATGCCAAAGCAGTTTACATTTTACAGATGCCATGGCAACCGTCAGGAAGTTACCCTGTATGGTCTAAGAGGGGGAGGAACCCTCAGTTCCGGGAATTGCCCGCCCCTTTCCCGGAAACTCATGAATAATCCACCCCGTTCCCCCTTAACAAAAGCCACCTCCTCCCTCCTGAAAGGCACCATTGGTCACCAAAACAAGTCCCCTTTGTCCTCCACCGCAGCTGGAGCCTGGGCCTTCCATCTCCTGGGGGCCAATAAAACCCCAGATCAGCCAATCCTCCCTCCCTGGCTCTGTCATCCAAACACTCCCCTGCAACAGATGTACACACAGAGCCCATTGTTTTCTCTAGAAATGTAAACTGCACGTCACAGTTACTCCATACACACCACAAACAGACTCCCTTTGTTCTCAGGATATGTGTTGACACAAGAATATGTCATCCTCTCAGCTCCAGACTGAAAGAGATGGGTGTGTGGGAGTGGGGGAAGCTGAGCTCCAGGCAGACAGCACAGAGCCGCCTTGTCCAACCCAGCCAGGTGCCATGGCAACCAACAAAGGCCCCATTGTCCCGTGTCTGCTGGGCCTTCCTGAGGCTCTGGGGTCAGAGTCCCGGTT
As for B3, in the data set with GSC7 cells [1], the “expression level compared with positive control CMV, flow cytometry” value is “higher than CMV” and the “fluorescence intensity compared with CMV” value is recorded as “higher intensity than CMV”. Moreover, the “activity compared with CMV” value in the data set on GSC7 cells [2] is on record as “higher than CMV”.

B4: SSE-2: synthetic super-enhancer ID0109_ID4328_ID0876_ID2339, SEQ ID NO: 65 (nucleic acid)
DNA: GAAATTGGATCCTGAGGAGAATGTCACCACCTCTTTGACAATAACTAGCTTTCAGAGCTGAACACAGTGAATCTGGATACTGTGTATATGTTTAAATGAGTTAGGAAATGACATCACATTATTTATTTCTTCTTTTGTGACTTAGTAAATTGACTTGGCCTACAATCTATTCTCCATAGTCATCAGAGTTTCTTTAAAGGCACGGTTCAGACAATGGCACCCTCTGTTCCAAACCCTCCAGGGCTTCCTATTTCACTTAGCATAAAAACCAAAGTCCTCACAATGACCGACAAGTCTTCACACAATGTGCCCCTTCATTGGAGCAGGCAGTCATTTGGTTCCCTTCTCTGAATGCATTGGCTCTGATCCACGGCGCCTCAGGAAGTGAAAGGGAGCAGGCAGTGAGGCCAAGCCATGAATGTTGGGCCCTTTTCTTAGAAAACAAAGGGTTCACTTTAGGCTAGGAGGAAACATCCGGGGGTCGGCGGAACTGAGTCTCCTTTGTGGAGCCCCTCATTTGCATGATAAACCCCGGGGACAAAGTGTGTTCTTGTTACTTGGACTGTTTCTTGGAAACTGCTGCTACCTGGAGCGAGTGAACACAGGGCAAGTATTCTCGCCCACAGCAACGTGTCATTGA
B4: in the data set with GSC7 cells [1], the “expression level compared with positive control CMV, flow cytometry” value was “higher than CMV” and the “fluorescence intensity compared with CMV” value is on record as “higher intensity than CMV”. The “activity compared with CMV” value in the data set on GSC7 cells [2] was “higher than CMV”.

B5: ID2904: enhancer fragment, SEQ ID NO: 5 (nucleic acid)
DNA: TGCATGTTCTTGGGAAAAAGTGGTATTTAATGAAGGCGCTTTGAGCTGAATCAAAGAGCCTCATTCTTCTGAAAGTCCTTCTTCCTAGTCTCTGCATCCGGCTCCTATCAAAGGAAATCCACAGCTTTGGCTTTTCGTTGCTGTTGTCATGGAAATCGTT
As to B5, in the data set with SOX9, the SOX9 interaction result was “selectively interacts”. Further, the “Fold change (Median)” value with GSC7 cells [2] (expression fold change of the individual enhancer compared to mCMV) turned out to be 251.6 fold.
